Here are results for 24 sequences from the supplement of paper PMC9170038.

The subject of the data set is MS2 coat protein. The data set can be described thus: apparent KD of MS2 coat protein; designed switch direction (-1 OFF switch, 1 ON switch): -1; higher = weaker reporter binding. The method in brief:
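Stalled E. coli RNA polymerase transcribed designed RNA switches on Illumina chips, which were then titrated with SNAP-549-labelled MS2 coat protein, doubling from 0.7 or 1.5 nM to 3 µM. Steps lasted from 0.8–1.5 h at the lowest concentration to 10–20 min at the highest. The apparent KD is each design's median over clusters of curve-fitted normalised fluorescence.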

Where [1] appears, read: input ligand: microRNA oligo, concentration not stated.
Setting [2] is: Eterna round: R95, input ligand: FMN 200 uM.
The mark [3] stands for this setting: Eterna round: R95, input ligand: microRNA oligo, concentration not stated.
Where [4] appears, read: Eterna round: R95, input ligand: none.

As for “GUCAUCGCAGGAUAUUAGAGUUUUUACAUGAGGAUCACCCAUGUUAAUUGGGUUAAUGUCUAAGAAGGGCGAUGAA [JR_EX5_Sub013] (Eterna round: R97, puzzle: Exclusion 5)”, the “apparent KD of MS2 coat protein” value (input ligand: FMN 200 uM) turned out to be 126 nM and the “apparent KD of MS2 coat protein” value (input ligand: none) worked out at 67.4 nM.
“GUCCGGCAUGUAGGAUAUGGAUCCGAUUAGGAUUUAGAAGGACAUGAGGAUCACCCAUGUGCAUUUAAUUAGUCAUUACCGGAC [EXclNG1-LROPPY04] (Eterna round: R96, puzzle: Exclusion NG 1)”: the “apparent KD of MS2 coat protein” value turned out to be 16.4 nM (input ligand: FMN 200 uM), 12.5 nM under setting [1] and 16.6 nM (input ligand: none).
In the case of “GUCCUUUCUGAGGAUAUUAUCCUUUUCGAUUGAUAAGAAGGCAGUACAUGAGGAUCACCCAUGUGGGUUGUCUG [Polaris30] (Eterna round: R97, puzzle: Exclusion 6)”, the “apparent KD of MS2 coat protein” value amounted to 45.8 nM (input ligand: FMN 200 uM) and 38.2 nM (input ligand: none).
Take “GUCGUGCAGCUUUGCUGUACGAGUACAUGAGGAUCACCCAUGUAGGAUAUGGUACGCUUUGCGUGCCAGAAGGGCGUGCGUUGG [salish99_ExNG3_r04_005] (Eterna round: R96, puzzle: Exclusion NG 3)”: the “apparent KD of MS2 coat protein” value runs as follows: (input ligand: FMN 200 uM) 30.2 nM; under setting [1], 24 nM; (input ligand: none) 34.6 nM.
Turning to “GUCGUGCGGCUUUGCUGUACGAGUACAUGAGGAUCACCCAUGUAGGAUAUGGUUCGUUUUGCGUGCUAGAAGGGCGUGCGUUGU [Excl-NG3-LRO15] (Eterna round: R96, puzzle: Exclusion NG 3)”, the “apparent KD of MS2 coat protein” value under setting [1] is 17.9 nM.
“GUGAACUCGCUACUUACCAACAUGAGGAUCACCCAUGUGGGAGAAAGUGAAUAGCUAGUUGUUACGUCUUAAUCCAG [Eternabot (L1) Solution 47] (Eterna round: R97, puzzle: Sensor, turn-off variant 1)”: the “apparent KD of MS2 coat protein” value runs as follows: (input ligand: FMN 200 uM) 12.7 nM; (input ligand: none) 13 nM.
On the same counts, the results for “GUGAAUGCAAGCUUUAAAUACAUGAGGAUCACCCAUGUAAACGCUAACCGCGAUAAUUACUGGGUACCUCCCGUCUU [Eternabot (L2) Solution 44] (Eterna round: R97, puzzle: Sensor, turn-off variant 1)” are 8.7 nM and 24.9 nM.
“GUGACCAUAGGAUAUACAUGAGGAUCACCCAUGUGCAGGCCGAAAGACCUGCGGUCAUGUAGAAGGAUGUAAUU [EX3 A.17] (Eterna round: R97, puzzle: Exclusion 3)”: the “apparent KD of MS2 coat protein” value runs as follows: (input ligand: FMN 200 uM) 19.6 nM; (input ligand: none) 16.4 nM.
For the sequence “GUGAGGGAGUGAGGAUAUCAGGGAGGUGGGAAAUGAGAAGGUACAUGAGGAUCACCCAUGUAAGAGUAGGGAAGAGAGAAGAGU [Default title] (Eterna round: R96, puzzle: Exclusion NG 1)”, the “apparent KD of MS2 coat protein” value is, setting by setting: (input ligand: FMN 200 uM) 78.7 nM; under setting [1], 109 nM; (input ligand: none) 83.8 nM.
As to “GUGAGUAGUCAGGAUAUGCUGUACAAAAGUACAGCAGAAGGGAUUACAUGAGGAUCACCCAUGUUUACUUCGUG [Omei Ex6 B3] (Eterna round: R97, puzzle: Exclusion 6)”, the “apparent KD of MS2 coat protein” value by setting is: (input ligand: FMN 200 uM) 105 nM; (input ligand: none) 29.7 nM.
Regarding “GUGAUGUAGCACAAUAAGUUUUUUGCCGUCUUAGGUCCAACAUGAGGAUCACCCAUGUACGUCUACAUGCACUUUAA [Veveuslabe] (puzzle: Sensor v3, turn-off variant 2)”, the “apparent KD of MS2 coat protein” value under setting [2] amounted to 66.4 nM, the “apparent KD of MS2 coat protein” value under setting [3] is 197 nM and the “apparent KD of MS2 coat protein” value under setting [4] was found to be 81.2 nM.
For the sequence “GUGCAACAUGAGGAUCACCCAUGUUAGGAUAUGUCCUUGGAGACGCACUAGCUCUGAGACAGAAGGGACAGAGG [Eternabot (Original) Solution 34] (Eterna round: R97, puzzle: Exclusion 1)”, the “apparent KD of MS2 coat protein” value (input ligand: FMN 200 uM) turned out to be 69.9 nM and the “apparent KD of MS2 coat protein” value (input ligand: none) stood at 51.2 nM.
As for “GUGCGGUGAGGAUAUACGUAGGUACAGAUCUGUGUGUUCCUACAUGAGGAUCACCCAUGUAGAAGGCAUGGCAC [LRO-Excl2-12] (puzzle: Exclusion 2)”, under setting [3], the “apparent KD of MS2 coat protein” value is 38.4 nM.
Consider “GUGGGACAUGAGGAUCACCCAUGUCAGGAUAUUUGGGCGAGAUUCGAUCUCGUUAGCCGGAGAAGGGACGUAUG [Eternabot (L2) Solution 47] (Eterna round: R97, puzzle: Exclusion 1)”, for which the “apparent KD of MS2 coat protein” value stood at 34.7 nM (input ligand: FMN 200 uM) and 25 nM (input ligand: none).
Consider “GUGGUACAUGAGGAUCACCCAUGUCAGGAUAUCGUGUGUUUUUUUUCGGCCGCGCGCGCGAGAAGGGACGUCUU (puzzle: Exclusion 1)”, for which the “apparent KD of MS2 coat protein” value under setting [3] is 16.8 nM.
Take “GUGGUACAUGAGGAUCACCCAUGUGAGGAUAUGUCUGUCUGUUGGUUUCGGCGGGCGGGCAGAAGGCGCGUCGC [-27.3, -25.1 kcal, 16% A] (Eterna round: R97, puzzle: Exclusion 1)”: the “apparent KD of MS2 coat protein” value is 34.1 nM (input ligand: FMN 200 uM) and 31.6 nM (input ligand: none).
As for “GUGGUGGGUUUUCCGAGUAACAUGAGGAUCACCCAUGUAGAAGUUGAAGGUAUCAAGCGAAUGGCUCGUCAAAUGUG [JR_SV3TOV1_Sub047] (puzzle: Sensor v3, turn-off variant 1)”, the “apparent KD of MS2 coat protein” value reads like this: under setting [2], 42.3 nM; under setting [3], 17.5 nM; under setting [4], 46.4 nM.
Turning to “GUGGUGGGUUUUCCGAGUGACAUGAGGAUCACCCAUGUGUUAGUUUGAGGUAUCAAGCGAAUGGCUCGUCUUAUGUG [JR_SV3TOV1_Sub046] (Eterna round: R96, puzzle: Sensor v3, turn-off variant 1)”, the “apparent KD of MS2 coat protein” value reads like this: (input ligand: FMN 200 uM) 982 nM; under setting [1], 44.7 nM; (input ligand: none) 623 nM.
Take “GUGGUGGGUUUUCCGAGUGACAUGAGGAUCACCCAUGUGUUAGUUUGAGGUAUCAAGCGAAUGGCUCGUCUUAUGUG [JR_SV3TOV1_Sub046] (puzzle: Sensor v3, turn-off variant 1)”: the “apparent KD of MS2 coat protein” value under setting [2] came to 140 nM, the “apparent KD of MS2 coat protein” value under setting [3] turned out to be 21.2 nM and the “apparent KD of MS2 coat protein” value under setting [4] came out at 154 nM.
Turning to “GUGUAACUACACGGGCUCAACAUGAGGAUCACCCAUGUCAUACACGCAAGCUUUUUGCUUGUCUUAUCUGUCCGUGA [Raenzama] (puzzle: Sensor v3, turn-off variant 1)”, the “apparent KD of MS2 coat protein” value is, setting by setting: under setting [2], 12.1 nM; under setting [3], 13.5 nM; under setting [4], 10.4 nM.
As to “GUGUACAGAGGAUAUACUUGAAUCUAGCGAAGCUAGGUUUGACAUGAGGAUCACCCAUGUAGAAGGCUGUACAC [Dot plot directed A v1] (puzzle: Exclusion 2)”, under setting [3], the “apparent KD of MS2 coat protein” value worked out at 13.7 nM.
“GUGUACGGAGGAUAUAUAUGGGCAGGCUGACCUGCAGCUUCACAUGAGGAUCACCCAUGUAGAAGGCUGUGCAC [JL-ex2-2.07 Brourd mod] (puzzle: Exclusion 2)”: the “apparent KD of MS2 coat protein” value under setting [3] is 27.1 nM.
Turning to “GUGUACGGAGGAUAUAUGUGGCGAGCAUACGCUCGAGCUUCACAUGAGGAUCACCCAUGUAGAAGGCUGUGCAC [JL-ex2-2.12 Brourd mod] (puzzle: Exclusion 2)”, the “apparent KD of MS2 coat protein” value under setting [3] came to 17.9 nM.
In the case of “GUGUAGAUAGGAUAUGCGUGAGUCUAGCGAAGCUAGAUUCUACAUGAGGAUCACCCAUGUAGAAGGGUCUACAC [Fiskers Ex 2 - 26] (puzzle: Exclusion 2)”, the “apparent KD of MS2 coat protein” value under setting [3] worked out at 15.9 nM.
